Experimental data reported in patent US20200024330A1.

Tests used:
Test in all cases: cell-based or functional assay
[1] = target: HIV-1 JR-CSF Env N392Q (HIV-1 (isolate JR-CSF)) (UniProt P20871)
[2] = target: HIV-1 JR-CSF Env S393A (HIV-1 (isolate JR-CSF)) (UniProt P20871)
[3] = target: HIV-1 JR-CSF Env I423A (HIV-1 (isolate JR-CSF)) (UniProt P20871)
[4] = target: HIV-1 JR-CSF Env I323A (HIV-1 isolate JR-CSF) (UniProt P20871)
[5] = target: HIV-1 JR-CSF Env S199A (HIV-1 JR-CSF) (UniProt P20871)
[6] = target: HIV-1 Env of isolate JR-CSF (HIV-1) (UniProt P20871)
[7] = target: HIV-1 Env of isolate VLGCA1 (HIV-1)
[8] = target: HIV-1 JR-CSF Env T319A (HIV-1 isolate JR-CSF) (UniProt P20871)
[9] = target: HIV-1 Env of isolate 93UG077 (HIV-1)
[10] = target: HIV-1 JR-CSF Env N396A (HIV-1 (isolate JR-CSF)) (UniProt P20871)
[11] = target: HIV-1 JR-CSF Env K421A (HIV-1 (isolate JR-CSF)) (UniProt P20871)
[12] = target: HIV-1 Env of isolate MGRM-C-026 (HIV-1)
[13] = target: Env of the clade B HIV-1 pseudoviruses of the cross-clade 162-pseudovirus panel (n = 31)
[14] = target: HIV-1 JR-CSF Env N301A (HIV-1 JR-CSF) (UniProt P20871)
[15] = target: HIV-1 JR-CSF Env I326A (HIV-1 isolate JR-CSF) (UniProt P20871)
[16] = target: HIV-1 JR-CSF Env N355A (HIV-1 isolate JR-CSF) (UniProt P20871)
[17] = target: HIV-1 JR-CSF Env Q422A (HIV-1 (isolate JR-CSF)) (UniProt P20871)
[18] = target: HIV-1 JR-CSF Env N262A (HIV-1 JR-CSF) (UniProt P20871)
[19] = target: HIV-1 JR-CSF Env H330A (HIV-1 isolate JR-CSF) (UniProt P20871)
[20] = target: HIV-1 JR-CSF Env L416A (HIV-1 (isolate JR-CSF)) (UniProt P20871)
[21] = target: Env of the clade AG HIV-1 pseudoviruses of the cross-clade 162-pseudovirus panel (n = 10)
[22] = target: HIV-1 JR-CSF Env T413A (HIV-1 (isolate JR-CSF)) (UniProt P20871)
[23] = target: HIV-1 JR-CSF Env R304A (HIV-1 JR-CSF) (UniProt P20871)
[24] = target: HIV-1 JR-CSF Env R350A (HIV-1 isolate JR-CSF) (UniProt P20871)
[25] = target: HIV-1 JR-CSF Env T320A (HIV-1 isolate JR-CSF) (UniProt P20871)
[26] = target: HIV-1 Env of isolate MGRM-AE-001 (HIV-1)
[27] = target: HIV-1 Env of isolate 92WR020 (HIV-1)
[28] = target: HIV-1 Env of isolate MGRM-A-008 (HIV-1)
[29] = target: HIV-1 Env of isolate 92TH021 (HIV-1)
[30] = target: Env of the clade F HIV-1 pseudoviruses of the cross-clade 162-pseudovirus panel (n = 15)
[31] = target: Env of all HIV-1 pseudoviruses of the cross-clade 162-pseudovirus panel (n = 162)
[32] = target: HIV-1 JR-CSF Env S306A (HIV-1 JR-CSF) (UniProt P20871)
[33] = target: HIV-1 JR-CSF Env F210A (HIV-1 JR-CSF) (UniProt P20871)
[34] = target: HIV-1 Env of isolate MGRM-A-001 (HIV-1)
[35] = target: HIV-1 JR-CSF Env I307A (HIV-1 JR-CSF) (UniProt P20871)
[36] = target: HIV-1 JR-CSF Env W395A (HIV-1 (isolate JR-CSF)) (UniProt P20871)
[37] = target: HIV-1 JR-CSF Env I420A (HIV-1 (isolate JR-CSF)) (UniProt P20871)
[38] = target: HIV-1 92BR020 envelope glycoprotein (Env) (HIV-1)
[39] = target: HIV-1 APV6 envelope glycoprotein (Env) (HIV-1)
[40] = target: HIV-1 APV13 envelope glycoprotein (Env) (HIV-1)
[41] = target: HIV-1 92RW020 envelope glycoprotein (Env) (HIV-1)
[42] = target: HIV-1 MGRM-C-028 envelope glycoprotein (Env) (HIV-1)

B1: PGT-127 (antibody, V domains shown)
VH: QPQLQESGPGLVEASETLSLTCTVSGDSTGRCNYFWGWVRQPPGKGLEWIGSLSHCRSYYNTDWTYHNPSLKSRLTISLDTPKNQVFLRLTSVTAADTATYYCARFGGEVLVYRDWPKPAWVDLWGRGTLVVTVS
VL: QSALTQPPSASGSPGQSITISCTGTSNNFVSWYQQYPGKAPKLVIYEVNKRPSGVPDRFSGSKSGSTASLTVSGLQADDEGVYYCSSLVGNWDVIFGGGTKLTVL
- Fold IC50 increase relative to wild-type [1]: 1.1 fold
- Fold IC50 increase relative to wild-type [2]: 1.2 fold
- Fold IC50 increase relative to wild-type [3]: 0.5 fold
- Fold IC50 increase relative to wild-type [4]: 4 fold
- Fold IC50 increase relative to wild-type [5]: 3 fold
- Polyclonal Transfectant Neutralization Index (well 5145 B14) [6]: 1.61
- Primary Neutralization Index (B cell culture well 5145 B14) [6]: 31.1
- IC50 (µg/mL), pseudovirus neutralization [7]: > 50 µg/mL
- Fold IC50 increase relative to wild-type [8]: 1 fold
- IC50 (µg/mL), pseudovirus neutralization [9]: 0.055 µg/mL
- Fold IC50 increase relative to wild-type [10]: 2.4 fold
- Fold IC50 increase relative to wild-type [11]: 1.5 fold
- Polyclonal Transfectant Neutralization Index (well 5145 B14) [12]: 2.62
- Primary Neutralization Index (B cell culture well 5145 B14) [12]: 86.9
- Median IC50 against viruses neutralized with an IC50 <50 µg/ml [13]: 0.06 µg/mL
- Fold IC50 increase relative to wild-type [14]: > 250 fold
- Fold IC50 increase relative to wild-type [15]: 3.5 fold
- Fold IC50 increase relative to wild-type [16]: 1.4 fold
- Fold IC50 increase relative to wild-type [17]: 0.1 fold
- Fold IC50 increase relative to wild-type [18]: 1.4 fold
- Fold IC50 increase relative to wild-type [19]: 0.5 fold
- Fold IC50 increase relative to wild-type [20]: 1 fold
- Median IC50 against viruses neutralized with an IC50 <50 µg/ml [21]: 0.04 µg/mL
- Fold IC50 increase relative to wild-type [22]: 0.8 fold
- Fold IC50 increase relative to wild-type [23]: 0.4 fold
- Fold IC50 increase relative to wild-type [24]: 1.1 fold
- Fold IC50 increase relative to wild-type [25]: 1.8 fold
- IC50 (µg/mL), pseudovirus neutralization [26]: > 50 µg/mL
- IC50 (µg/mL), pseudovirus neutralization [27]: 0.01 µg/mL
- IC50 (µg/mL), pseudovirus neutralization [28]: > 50 µg/mL
- IC50 (µg/mL), pseudovirus neutralization [29]: > 50 µg/mL
- Polyclonal Transfectant Neutralization Index (well 5145 B14) [29]: 0.94
- Primary Neutralization Index (B cell culture well 5145 B14) [29]: 1
- Median IC50 against viruses neutralized with an IC50 <50 µg/ml [30]: 0.65 µg/mL
- Median IC50 against viruses neutralized with an IC50 <50 µg/ml [31]: 0.08 µg/mL
- Fold IC50 increase relative to wild-type [32]: 0.6 fold
- Fold IC50 increase relative to wild-type [33]: 0.8 fold
- IC50 (µg/mL), pseudovirus neutralization [34]: > 50 µg/mL
- Fold IC50 increase relative to wild-type [35]: 10.2 fold
- Fold IC50 increase relative to wild-type [36]: 1.6 fold
- Fold IC50 increase relative to wild-type [37]: 1.8 fold

B2: PGT-130 (antibody, V domains shown)
VH: QVQLQESGPGLVKPAETLSLTCSVSGESINTGHYYWGWVRQVPGKGLEWIGHIHYTTAVLHNPSLKSRLTIKIYTLRNQITLRLSNVTAADTAVYHCVRSGGDILYYYEWQKPHWFSPWGPGIHVTVSS
VL: QSALTQPPSASGSLGQSVTISCNGTSSDIGGWNFVSWYQQFPGRAPRLIIFEVNKRPSGVPGRFSGSKSGNSASLTVSGLQSDDEGQYFCSSLFGRWDVVFGGGTKLTVL
- IC50 neutralization [38]: 1.12 µg/mL
- Fold IC50 increase relative to wild-type [1]: 1.2 fold
- Fold IC50 increase relative to wild-type [2]: 0.7 fold
- Fold IC50 increase relative to wild-type [3]: > 1000 fold
- Fold IC50 increase relative to wild-type [4]: 0.8 fold
- IC50 neutralization [39]: > 10 µg/mL
- Fold IC50 increase relative to wild-type [5]: 0.9 fold
- Polyclonal Transfectant Neutralization Index (well 5147 N6) [6]: 1.24
- Primary Neutralization Index (B cell culture well 5147 N6) [6]: 19.3
- Fold IC50 increase relative to wild-type [8]: 1.6 fold
- Fold IC50 increase relative to wild-type [10]: 1 fold
- Fold IC50 increase relative to wild-type [11]: 2.9 fold
- Polyclonal Transfectant Neutralization Index (well 5147 N6) [12]: 1.05
- Primary Neutralization Index (B cell culture well 5147 N6) [12]: 3
- Median IC50 against viruses neutralized with an IC50 <50 µg/ml [13]: 0.09 µg/mL
- Fold IC50 increase relative to wild-type [14]: > 1000 fold
- Fold IC50 increase relative to wild-type [15]: 1.3 fold
- Fold IC50 increase relative to wild-type [16]: 1.3 fold
- Fold IC50 increase relative to wild-type [17]: 1 fold
- Fold IC50 increase relative to wild-type [18]: 0.7 fold
- Fold IC50 increase relative to wild-type [19]: 0.9 fold
- Fold IC50 increase relative to wild-type [20]: 1 fold
- Median IC50 against viruses neutralized with an IC50 <50 µg/ml [21]: 0.04 µg/mL
- Fold IC50 increase relative to wild-type [22]: 0.6 fold
- Fold IC50 increase relative to wild-type [23]: 2.5 fold
- Fold IC50 increase relative to wild-type [24]: 0.5 fold
- IC50 neutralization [40]: 0.0345 µg/mL
- Fold IC50 increase relative to wild-type [25]: 0.9 fold
- Polyclonal Transfectant Neutralization Index (well 5147 N6) [29]: 4.2
- Primary Neutralization Index (B cell culture well 5147 N6) [29]: 538
- Median IC50 against viruses neutralized with an IC50 <50 µg/ml [30]: 0.07 µg/mL
- Median IC50 against viruses neutralized with an IC50 <50 µg/ml [31]: 0.18 µg/mL
- Fold IC50 increase relative to wild-type [32]: 1.5 fold
- Fold IC50 increase relative to wild-type [33]: 1.7 fold
- IC50 neutralization [41]: 0.014 µg/mL
- Fold IC50 increase relative to wild-type [35]: 1000 fold
- Fold IC50 increase relative to wild-type [36]: 0.6 fold
- Fold IC50 increase relative to wild-type [37]: 9.8 fold
- IC50 neutralization [42]: > 10 µg/mL
